Measurements: article PMC4287840

Legend:
angiopoietin-2 (Ang2) [1] = target: T1, angiopoietin-2 (Ang2) (human, UniProt O15123 19-496); assay: bead-based fluorescence assay
angiopoietin-2 (Ang2) [2] = target: T1, angiopoietin-2 (Ang2); assay: bead-based fluorescence assay; remark: listed apart in the source
angiopoietin-2 (Ang2) [3] = target: T1, angiopoietin-2 (Ang2); assay: bead-based fluorescence assay; remark: listed apart in the source
angiopoietin-2 (Ang2) [4] = target: T1, angiopoietin-2 (Ang2); assay: ELONA sandwich

T1 sequence (O15123 19-496): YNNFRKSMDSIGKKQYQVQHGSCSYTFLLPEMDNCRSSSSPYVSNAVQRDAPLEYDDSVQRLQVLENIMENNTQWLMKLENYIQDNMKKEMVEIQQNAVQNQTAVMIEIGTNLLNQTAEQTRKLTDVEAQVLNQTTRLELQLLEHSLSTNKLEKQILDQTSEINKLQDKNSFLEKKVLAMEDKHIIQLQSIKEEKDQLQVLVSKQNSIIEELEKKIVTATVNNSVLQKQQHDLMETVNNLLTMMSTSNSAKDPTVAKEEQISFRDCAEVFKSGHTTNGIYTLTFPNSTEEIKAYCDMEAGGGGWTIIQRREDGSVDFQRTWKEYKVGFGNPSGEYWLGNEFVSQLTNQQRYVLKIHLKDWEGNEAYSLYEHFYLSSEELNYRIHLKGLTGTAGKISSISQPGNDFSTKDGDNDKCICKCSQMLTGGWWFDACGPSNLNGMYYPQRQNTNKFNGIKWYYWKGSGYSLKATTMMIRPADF

TTTTTTTTTTTTTTTTTTTTTTTTT (ssDNA) [25T linker]
Kd (angiopoietin-2 (Ang2) [1]): 210 ± 49.4 nM

ACTTGTAGGGTTCGGCTGGTCAGGGTGTCCAAGTCTGTGG (ssDNA) [ABA1]
binding signal (angiopoietin-2 (Ang2) [2]): ~210 fold higher Kd than ABA1-ABA65 (97 pM)

GGGTGCCATTGGGGACTGCTCGGGATTGCGGACTTGGCAT (ssDNA) [ABA109]
binding result (angiopoietin-2 (Ang2) [3]): binds

GGTGCCATTGGGGACTGCTCGGGATTGCGGACTTGGCATC (ssDNA) [ABA92]
binding result (angiopoietin-2 (Ang2) [3]): binds

TTTGGGGTGGTTGGGGGTTGTTGTTTTGGGGGTGGAGGGT (ssDNA) [ABA65]
binding result (angiopoietin-2 (Ang2) [4]): binds
